Assay results: patent US20230038638A1, “COMPLEMENT FACTOR I-RELATED COMPOSITIONS AND METHODS” (published 2023)

Assays:
[1] = target: soluble human C3b (human) (UniProt P01024)
human C4b (human) = target: T1, human C4b (human) (UniProt P0C0L5)
T1 sequence: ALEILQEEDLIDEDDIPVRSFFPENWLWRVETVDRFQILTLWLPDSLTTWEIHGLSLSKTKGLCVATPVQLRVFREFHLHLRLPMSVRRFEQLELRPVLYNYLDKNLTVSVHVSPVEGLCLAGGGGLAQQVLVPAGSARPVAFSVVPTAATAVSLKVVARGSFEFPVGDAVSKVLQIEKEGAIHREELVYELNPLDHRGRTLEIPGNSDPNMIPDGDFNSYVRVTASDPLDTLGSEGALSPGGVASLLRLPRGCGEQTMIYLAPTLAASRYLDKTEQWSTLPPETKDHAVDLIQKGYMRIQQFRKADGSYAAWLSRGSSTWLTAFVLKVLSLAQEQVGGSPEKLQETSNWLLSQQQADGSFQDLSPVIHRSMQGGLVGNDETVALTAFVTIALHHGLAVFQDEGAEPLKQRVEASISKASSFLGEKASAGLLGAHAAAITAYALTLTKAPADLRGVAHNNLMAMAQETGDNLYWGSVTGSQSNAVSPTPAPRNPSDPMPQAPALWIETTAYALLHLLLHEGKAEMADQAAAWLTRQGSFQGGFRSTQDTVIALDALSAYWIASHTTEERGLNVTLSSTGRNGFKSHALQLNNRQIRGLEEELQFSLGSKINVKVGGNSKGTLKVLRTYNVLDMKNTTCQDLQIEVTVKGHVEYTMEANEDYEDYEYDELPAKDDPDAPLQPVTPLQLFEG

| Substance | iC3b Screen Ref Fold (fold vs CFI-HSA wild type) [1] | C4b Screen Ref Fold (fold vs CFI-HSA wild type) (human C4b (human)) | other results |
| --- | --- | --- | --- |
| CFI-HSA K424S (enzyme) | 0.29 | -0.1 | – |
| CFI-HSA variant E530G (enzyme) | 0.12 | -0.02 | – |
| CFI-HSA D425R; Y408L; N531G; E457G; E461Q; R462K; F464Y; E530Y (enzyme) | 1.57 | 4.98 | – |
| CFI-HSA K424F (enzyme) | 1.04 | 0.35 | – |
| CFI-HSA P535G; E530Y (enzyme) | 0.22 | 0.11 | – |
| CFI-HSA Y553N (enzyme) | 0.63 | 0.6 | – |
| CFI-HSA variant Y408L; E457G; P535G; K534Q (enzyme) | – | – | iC3b Screen Ref Fold (fold of CFI-HSA wild type) [1]: 0.53; C4b Screen Ref Fold (fold of CFI-HSA wild type) (human C4b (human)): 1.43 |
| CFI-HSA D549H (enzyme) | 0.73 | 0.92 | – |
| CFI-HSA K424H (enzyme) | 1.46 | 0.53 | – |
| CFI-HSA Y408L; E457G; D425R; E530Y (enzyme) | 1.74 | 1.68 | – |
| CFI-HSA T377G; E457G; E461Q; N531G (enzyme) | 1.57 | 4.73 | – |
| CFI-HSA R365V (enzyme) | 0.43 | 1.25 | – |
| CFI-HSA variant I322V; V323I (enzyme) | 0.39 | 0.31 | – |
| CFI-HSA variant A328C; W468C; K326Y; R327N (enzyme) | 0.01 | 0.15 | – |
| CFI-HSA F399G (enzyme) | 0.65 | 0.05 | – |
| CFI-HSA E457G; E461Q; F464Y; N531G; GGSSGG (SEQ ID NO: 6); CR1 (ccp15-17) (from UniProt P17927) (enzyme) | 0.13 | 4.44 | – |
| CFI-HSA variant D425R; Y408L; N531G; E457G; E461Q; R462K; F464Y; E416A (enzyme) | – | – | iC3b Screen Ref Fold (fold of CFI-HSA wild type) [1]: 1.63; C4b Screen Ref Fold (fold of CFI-HSA wild type) (human C4b (human)): 3.88 |
| CFI-HSA E457G; E530Y (enzyme) | 2.03 | 2.48 | – |
| CFI-HSA D501G (enzyme) | -0.04 | -0.01 | – |
| CFI-HSA K424P (enzyme) | 1.05 | 0.33 | – |
| CFI-HSA variant R327P (enzyme) | 0.67 | 1.67 | – |
| CFI-HSA K424D (enzyme) | 1.15 | 0.27 | – |
| CFI-HSA D549V (enzyme) | 0.46 | 0.07 | – |

| Substance | iC3b Screen Ref Fold (fold vs CFI-HSA wild type) [1] | C4b Screen Ref Fold (fold vs CFI-HSA wild type) (human C4b (human)) | other results |
| --- | --- | --- | --- |
| CFI-HSA variant K14A; D425R (enzyme) | 0.99 | 0.64 | – |
| CFI-HSA variant Δ(S308) (enzyme) | – | – | iC3b Screen Ref Fold (fold relative to CFI-HSA wild type) [1]: -0.01; C4b Screen Ref Fold (fold relative to CFI-HSA wild type) (human C4b (human)): 0.21 |
| CFI-HSA variant N402E (enzyme) | 0.75 | 1.64 | – |
| CFI-HSA E457G; N531G; E530Y (enzyme) | 1.67 | 4.22 | – |
| CFI-HSA Y553S (enzyme) | 0.93 | 0.76 | – |
| CFI-HSA variant Y408L; P535G; P558S (enzyme) | – | – | iC3b Screen Ref Fold (fold of CFI-HSA wild type) [1]: 0.24; C4b Screen Ref Fold (fold of CFI-HSA wild type) (human C4b (human)): 0.04 |
| CFI-HSA K424R (enzyme) | 0.97 | 0.32 | – |
| CFI-HSA variant N531G; P535G; N422K (enzyme) | – | – | iC3b Screen Ref Fold (fold of CFI-HSA wild type) [1]: 1.96; C4b Screen Ref Fold (fold of CFI-HSA wild type) (human C4b (human)): 2.85 |
| CFI-HSA K423G (enzyme) | 0.69 | 0.15 | – |
| CFI-HSA E457G; N531G; E461Q; R462K; F464Y; GGSSGG (SEQ ID NO: 6); CR1 (ccp15-17) (from UniProt P17927) (enzyme) | 0.1 | 4.36 | – |
| CFI-HSA R365L (enzyme) | 0.16 | 0.6 | – |
| CFI-HSA R557E (enzyme) | -0.02 | 1.15 | – |
| CFI-HSA Y408L; E457G; N531G; D425R; E530Y (enzyme) | 1.08 | 4.1 | – |
| CFI-HSA K424Q (enzyme) | 1.27 | 0.47 | – |
| CFI-HSA variant N52Q; N85Q; N159Q (enzyme) | 1.93 | 0.24 | – |
| CFI-HSA variant Y408L; N531G; E457G; E461Q; R462K; F464Y; S507A (enzyme) | 0 | 0.01 | – |
| CFI-HSA variant Y408L; E457G; N531G; P535G; WT; GGSSGG (SEQ ID NO: 6); CR1(ccp15-17) (from UniProt P17927) (enzyme) | – | – | iC3b Screen Ref Fold (fold of CFI-HSA wild type) [1]: 0.05; C4b Screen Ref Fold (fold of CFI-HSA wild type) (human C4b (human)): 3.14 |
| CFI-HSA variant A328C; W468C (enzyme) | 0 | -0.06 | – |
| CFI-HSA R557F (enzyme) | 0.12 | 2.13 | – |
| CFI-HSA variant Y408E (enzyme) | – | – | iC3b Screen Ref Fold (fold of reference) [1]: 0.23 |
| CFI-HSA R365N (enzyme) | 0.04 | 0.1 | – |
| CFI-HSA variant A361G (enzyme) | 0.64 | 0.84 | – |
| CFI-HSA N531G; P535A; R557K (enzyme) | 1.65 | 4.13 | – |

| Substance | iC3b Screen Ref Fold (fold vs CFI-HSA wild type) [1] | C4b Screen Ref Fold (fold vs CFI-HSA wild type) (human C4b (human)) | other results |
| --- | --- | --- | --- |
| CFI-HSA variant P535G; P558S (enzyme) | – | – | iC3b Screen Ref Fold (fold of CFI-HSA wild type) [1]: 0.25; C4b Screen Ref Fold (fold of CFI-HSA wild type) (human C4b (human)): 0.2 |
| CFI-HSA R365S (enzyme) | 0.6 | 0.18 | – |
| CFI-HSA R557G (enzyme) | 0.04 | 1.61 | – |
| CFI-HSA R557N (enzyme) | 0.05 | 1.87 | – |
| CFI-HSA variant Y553H; F559L; P558S (enzyme) | – | – | iC3b Screen Ref Fold (fold of CFI-HSA wild type) [1]: 0.22; C4b Screen Ref Fold (fold of CFI-HSA wild type) (human C4b (human)): 0.69 |
| CFI-HSA variant Y408L; P535G; WT; GGSSGG (SEQ ID NO: 6); CR1(ccp15-17) (from UniProt P17927) (enzyme) | – | – | iC3b Screen Ref Fold (fold of CFI-HSA wild type) [1]: 0.03; C4b Screen Ref Fold (fold of CFI-HSA wild type) (human C4b (human)): 3.01 |
| CFI-HSA R365G (enzyme) | 0.16 | 0.35 | – |
| CFI-HSA variant Y408L; D425K (enzyme) | – | – | iC3b Screen Ref Fold (fold of CFI-HSA wild type) [1]: 1.14; C4b Screen Ref Fold (fold of CFI-HSA wild type) (human C4b (human)): 1.29 |
| CFI-HSA D549G (enzyme) | 0.86 | 0.75 | – |
| CFI-HSA variant N85Q (enzyme) | 2.47 | 0.66 | – |
| CFI-HSA variant E38A; D425R (enzyme) | 0.83 | 0.96 | – |
| CFI-HSA variant Y408A (enzyme) | 0.71 | 0.09 | – |
| CFI-HSA variant Y408W (enzyme) | – | – | iC3b Screen Ref Fold (fold of reference) [1]: 0.82 |
| CFI-HSA variant Y4081 (enzyme) | 0.03 | – | – |
| CFI-HSA variant Y408K (enzyme) | 0.65 | – | – |
| CFI-HSA variant T346R; K504E; E530R (enzyme) | – | – | iC3b Screen Ref Fold (fold of reference) [1]: 0.51 |
| CFI-HSA variant K504Q (enzyme) | 0.64 | – | – |
| CFI-HSA variant Y408V (enzyme) | – | – | iC3b Screen Ref Fold (fold of reference) [1]: 0 |
| CFI-HSA variant Y408T (enzyme) | 0.04 | – | – |
| CFI-HSA variant Y408D (enzyme) | 0.02 | – | – |
| CFI-HSA variant I317D-R318D-R319D-K320D-R321K (enzyme) | 0.03 | – | – |
| CFI-HSA variant N446Q; N476Q; N518Q (enzyme) | 0.06 | – | – |
